From patent publication US20080274977A1

T1: chemokine CXCR2 (IL-8Rb), P25025
T1 chain: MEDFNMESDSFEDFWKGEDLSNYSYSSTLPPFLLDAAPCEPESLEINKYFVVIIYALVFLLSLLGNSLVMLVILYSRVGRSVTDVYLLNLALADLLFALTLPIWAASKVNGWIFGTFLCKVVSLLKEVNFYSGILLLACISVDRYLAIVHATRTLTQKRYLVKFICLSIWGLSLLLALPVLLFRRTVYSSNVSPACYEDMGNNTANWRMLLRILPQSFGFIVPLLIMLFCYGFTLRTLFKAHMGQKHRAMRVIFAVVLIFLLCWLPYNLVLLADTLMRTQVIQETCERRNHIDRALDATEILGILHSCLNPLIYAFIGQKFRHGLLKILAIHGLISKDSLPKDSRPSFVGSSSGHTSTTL


Tests used:
[1] = target: N-type calcium channel (receptor binding screen of Example 1)
[2] = target: T1, chemokine CXCR2 (IL-8Rb), P25025

Row | Molecule | % inhibition [1] [%] | % inhibition [2] [%]
1 | Tat-NR2B9c (peptide) | 100 | –
2 | YGRKKRRQRRRKLSSIESDV (modifications not checked) [Tat-NR2B9c] | – | 80
